These results are taken from paper PMC8689070.

Series [1] has as its system CovR (non-phosphorylated) (Streptococcus pyogenes (M1T1 5448?; locus numbering MGAS5005)). Briefly: EMSA.
In series [2] the test system is CovR-P (SP-TyK-phosphorylated) (Streptococcus pyogenes (M1T1 5448?; locus numbering MGAS5005)). Briefly: EMSA. On the technique in general: A gel shift assay detects complexes by their altered migration in electrophoresis.

With PcovR, in series [1], the binding signal (fold of CovR-P binding) was 0.25. For the same substance, in series [2], the binding signal (fold vs non-phosphorylated CovR) stood at 4.
